In patent publication US7807397B2, “Diagnostic method for disorders using copeptin” (B.R.A.H.M.S Aktiengesellschaft, priority 2004, dated 2010):
Like-named read-outs stand apart in the source and are kept apart here. Where no end group is shown, it is not given here.

Tests used:
[1] = reference [14]; cited from earlier work
blood platelets = conditions: reference [21]; cited from earlier work
[2] = format: in vitro ADME, human
Method: The following assay buffer was used: 100 mM sodium phosphate, 150 mM NaCl, 5% bovine serum albumin, 0.1% unspecified sheep IgG, 0.1% sodium azide, pH 7.4.
As a standard material chemically synthesized peptide (peptide PAY 33) was used which corresponds to positions 132-164 of vasopressin-neurophysin 2-copeptin precursor. The standard was diluted in normal horse serum (Sigma). […]
In the test tubes 100 μl of standards or sample as well as 100 μl of assay buffer was pipetted. The tubes were incubated for two hours at 22° C. using gentle rotation. After washing 4 times with 1 ml of washing buffer (0.1% Tween 20), the supernatant was discarded. Then 200 μl of assay buffer, containing 1 million RLU (relative light units) of MA70-tagged antibody was added and incubated for a further two hours under gentle rotation at 22° C. After washing 4 times with 1 ml of washing buffer (0.1% Tween 20), the chemiluminescence bound to the tube was determined in a luminometer (Berthold, LB952T, basic reagents Brahms AG).
Using the software MULTICALC® (Spline Fit), the concentrations of the samples were determined.
The term copeptin immunoreactivity describes the amount of substrate detected by the developed sandwich immunoassay. The sandwich immunoassay uses antibodies raised against positions 132-147 and 149-164 of the vasopressin-neurophysin 2-copeptin-precursor for detection of the substrate. A typical standard curve for the developed assay is described in FIG. 1. Using the assay concentrations above 50 pg/ml copeptin immunoreactivity in plasma or serum can be determined quantitatively.

Row | Molecule | half-life in vivo [1] | fraction bound to blood platelets (blood platelets) | Recovery (%) ([2]; plasma (n = 5), storage 1 d/4° C.) | Recovery (%) ([2]; plasma (n = 5), storage 1 d/RT) | Recovery (%) ([2]; plasma (n = 5), storage 2 d/4° C.) | Recovery (%) ([2]; plasma (n = 5), storage 2 d/RT) | Recovery (%) ([2]; serum (n = 3), storage 1 d/4° C.) | Recovery (%) ([2]; serum (n = 3), storage 1 d/RT) | Recovery (%) ([2]; serum (n = 3), storage 2 d/4° C.) | Recovery (%) ([2]; serum (n = 3), storage 2 d/RT)
1 | NC(=O)CC[C@@H]1NC(=O)[C@H](Cc2ccccc2)NC(=O)[C@H](Cc2ccc(O)cc2)NC(=O)[C@@H](N)CSSC[C@@H](C(=O)N2CCC[C@H]2C(=O)N[C@@H](CCCN=C(N)N)C(=O)NCC(N)=O)NC(=O)[C@H](CC(N)=O)NC1=O [vasopressin] | 24 min | More than 90% | – | – | – | – | – | – | – | –
2 | copeptin: C-terminal glycoprotein of the VP prohormone, 39 amino acids plus sugar moiety; measured as endogenous copeptin immunoreactivity (ASDRSNATQLDGPAGALLLRLVQLAGAPEPFEPAQPDAY; also: glycosylated (sugar moiety); UniProt P01185 126-164, looked up) | – | – | 103.4% | 99.9% | 101.6% | 104.9% | 98.0% | 94.1% | 99.2% | 103.7%
